This note sets out measurements from PMC6251370.

The experiment addresses recombinant N-terminal SH3 domain (SH3N) of CRKL with a C-terminal hexahistidine tag (human). In words: dynamic mass redistribution.

For QPPPVPAKKS [peptide corresponding to the second PXXPXK motif of SASH1 (aa982–991)], the Kd was 7.38 µM.
